Molecular target: human plasma-derived Factor IXa (human) (UniProt P00740)
Test: cell-based or functional assay

Chain of human plasma-derived Factor IXa (human) (P00740 47-191, chain 1 of 2): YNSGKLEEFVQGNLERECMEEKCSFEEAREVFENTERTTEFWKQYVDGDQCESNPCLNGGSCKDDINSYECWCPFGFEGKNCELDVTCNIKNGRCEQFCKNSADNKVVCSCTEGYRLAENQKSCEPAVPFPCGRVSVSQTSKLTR
Chain of human plasma-derived Factor IXa (human) (P00740 227-461, chain 2 of 2): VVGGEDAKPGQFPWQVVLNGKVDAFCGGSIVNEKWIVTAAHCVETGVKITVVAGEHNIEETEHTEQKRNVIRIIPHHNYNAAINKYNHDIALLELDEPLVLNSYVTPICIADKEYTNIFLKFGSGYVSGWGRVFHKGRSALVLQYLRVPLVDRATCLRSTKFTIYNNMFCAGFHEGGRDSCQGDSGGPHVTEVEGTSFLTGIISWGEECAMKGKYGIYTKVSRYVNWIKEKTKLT

B1: one-armed (OA) 224F3 antibody (antibody, from another filing, V domains shown)
VH: QVQMQQSGAELVKPGASVKLSCKASGYTFTSQDINWVRQRPEQGLEWIGWIFPGDGSTKYNEKLKGKATLTTDKSSSTAFMQLSRLTSEDSAVYFCARSAYYRYDGSYYYAMDYWGQGTSVTVSS
VL: QIVLTQSPAIMSASLGEEITLTCSASSSVSYMLWYQQKSGTSPKLLIYTTSNLASGVPSRFSGTGSGTFYSLTISSVEAEDAADYYCHQWSSYPRTFGGGTKLEIKR
With B1 the Stimulation Index, FXa generation assay, 3260 nM OA antibody was less than 10 fold.

Reference: patent US20260193376A1
